# Data: publication PMC12140327, “Structural and Biochemical Characterization of a Widespread Enterobacterial Peroxidase Encapsulin” (Advanced Science, 2025)
# Several values for one entry are separate records, joined by “and”; a condition that tells them apart may be missing. Equal entries are not always repeated.
# Assays:
# [1] = target: free His6-tagged Dye-decolorizing peroxidase (DyP); assay: cryo-EM structure; purified free DyP, 0.5 mg/mL in 150 mM NaCl, 20 mM Tris pH 7.5; D3 symmetry imposed
# [2] = target: free His6-tagged Dye-decolorizing peroxidase (DyP); assay: SEC; Superdex S-200, 150 mM NaCl, 20 mM Tris pH 7.5; heme followed by absorption at 404 nm
# [3] = target: encapsulin shell protein (Enc) of the enterobacterial DyP encapsulin operon (E. coli); assay: cryo-EM 2D class averages after shell subtraction; purified EncDyP from staggered expression of DyP (PT7) and Enc (PBAD)
# [4] = target: encapsulin shell protein (Enc) of the enterobacterial DyP encapsulin operon (E. coli); assay: cryo-EM 2D class averages after shell subtraction; purified EncDyP from a two-gene operon under the T7 promoter
# [5] = target: T1, EncDyP (Escherichia coli, UniProt A0A5C9AJY8); assay: ABTS oxidation at […] nm, plate reader; assay type: biochemical; settings: H2O2 as co-substrate; 50 mM phosphate citrate pH 4.6-7.6; room temperature
# T1 construct: gene FPI65_30880; DyP-loaded T=1 encapsulin shell (60 Enc, about 3-5 DyP hexamers per shell); staggered co-expression in E. coli BL21(DE3), DyP in pCDFDuet-1, Enc in pBAD/HisA; no tag stated; DyP C-terminal residue K348; with Type 1 encapsulin shell protein
# [6] = target: T1, EncDyP; assay: in-gel peroxidase activity stain (native PAGE, ferricyanide); assay type: biochemical; settings: H2O2 0.003%; DAB in Tris-saline pH 7.5
# [7] = target: encapsulin shell protein (Enc) of the enterobacterial DyP encapsulin operon (E. coli); assay: cryo-EM structure; purified EncDyP from staggered co-expression, 2.8 mg/mL in 150 mM NaCl, 20 mM Tris pH 7.5; icosahedral symmetry imposed
compound,measurement,setting,value
free His6-tagged Dye-decolorizing peroxidase (DyP) (enzyme),stoichiometry N,[1],6
same,stoichiometry N,[2],6
"Dye-decolorizing peroxidase (DyP) cargo, co-expressed with Enc and encapsulated (enzyme)",DyP hexamers per shell (DyP hexamers per shell),[3],3 and 5
same,DyP hexamers per shell (hexamer per shell),[4],< 1
CCn1c(=NN=c2sc3cc(S(=O)(=O)O)ccc3n2CC)sc2cc(S(=O)(=O)O)ccc21 [ABTS],"ABTS oxidation at 420 nm, plate reader",[5],Peroxidase activity increased at a comparable rate for both free and encapsulated DyP
Nc1ccc(-c2ccc(N)c(N)c2)cc1N [DAB],"in-gel peroxidase activity stain (native PAGE, ferricyanide)",[6],in‐gel peroxidase activity staining using ferricyanide which confirmed the encapsulation of catalytically active DyP
encapsulin shell protein (Enc) of the enterobacterial DyP encapsulin operon (natural protein),stoichiometry N,[7],60
